± gives the uncertainty stated by the source.
Test: amyloid nucleation score (Sup35N fusion, yeast selection) (log enrichment); library NNK3; higher = more nucleation; inactive = no reads after selection
Summary of the method: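 On medium lacking adenine and uracil, psi-negative yeast expressing peptides of 20 random codons fused to Sup35N were grown 7 days at 30°C after a 24-hour induction with 100 μM copper sulfate. Illumina sequencing of input and output plasmid inserts gave the reads, and sequences under 100 input reads were excluded. The nucleation score is the DiMSum log enrichment of output over input reads, centred on the mode score of non-aggregating sequences.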

| Substance | amyloid nucleation score |
| --- | --- |
| QQDTNDSGYYGRVGMLVSYW | inactive |
| QRGVLL | inactive |
| QRKFVVAVVSATILLFNTRE | inactive |
| QRLRHFAVYTMMYEAWASRC | inactive |
| QRYVLSCRALTGDTCWRKSG | inactive |
| QSNTLYIKFAAWSYFFSDPE | inactive |
| QSQWFGIVFMLNIMRSRDFR | 0.645 ± 0.12 |
| QSTIEKHDMPDRLFIVAAGS | inactive |
| QTISVYYFHVLWSEGCRMYA | inactive |
| QTSIPGFDTTTLRVPLAFFG | inactive |
| QTSRT | inactive |
| QVDFQLCH | inactive |
| QVGVWRNNGYEYYRGRNLRG | inactive |
| QVLTFVYFHDNVMVLGWEYS | 0.206 ± 0.78 |
| QVPYFYLSVFLFFSPCSINF | 1.74 ± 0.063 |
| QVRVVGHFKWYRIGTKVRDI | inactive |
| QVSLLYSVECMTFSFGNGDA | 1.6 ± 0.11 |
| QVYLVIV | inactive |
| QWEVR | inactive |
| QWSCGFMYSFKHLGGDCYNL | inactive |
| QWTQFIELLCYCYG | 1.87 ± 0.11 |
| QWWSLVTCQAMMN | inactive |
| QYELIGSKYVQRFSFQANFS | 2.07 ± 0.074 |

| Substance | amyloid nucleation score |
| --- | --- |
| QYLWPAKFFQTLYIVGCTTP | inactive |
| QYNPLDCCNVRLKLYGPLMV | inactive |
| QYQCADGKDNFIL | inactive |
| QYVSSTFHV | inactive |
| QYVWCGPFERYLASSVYGFS | inactive |
| RALTLADASGMRGINSGTMK | inactive |
| RAMCTALTSGTYRTCC | inactive |
| RANDEEFHR | inactive |
| RANLSDFYYSSSIDLKLPLT | inactive |
| RASFLSFCFSMAGFSLFDIK | inactive |
| RAVNKFAVNTTKGGSHSWHS | inactive |
| RAVRARFSKTTVFDWYAISG | inactive |
| RAWMCIQW | 0.382 ± 0.25 |
| RCFFNRMRTDVYSVDSKVSF | inactive |
| RCFSRRSCCGSVVWTVRVRH | inactive |
| RCFVPINGK | inactive |
| RCGHFLYEFL | inactive |
| RCKSGLNSMGRRFRYRIQQP | 0.809 ± 0.18 |
| RCLRKSSIFA | inactive |
| RCLSDCYVRNECTF | inactive |
| RCLYTCPYADFSEPNSNLRQ | inactive |
| RCNPGLVCLGCTFVSRNAYS | 1.67 ± 0.081 |
| RCQRVGI | inactive |

| Substance | amyloid nucleation score |
| --- | --- |
| RCSHDYGLWVVDWVVSKWGC | inactive |
| RCTHYMNRQMVLHVCMYVSY | inactive |
| RCVIALMLYVILGMNGWKAS | inactive |
| RDCICSRYIYGLRLSVLIWN | -0.44 ± 0.66 |
| RDKKNNRVYFGGYSLGTWSC | inactive |
| RDLWNGFSLGA | inactive |
| RDNVFCVDVDICILVVR | inactive |
| RDPWFLSMVVDLFGYLNWVM | 0.338 ± 0.18 |
| RDYFAYNCMVWMGTIQLYPG | 1.83 ± 0.056 |
| REGFVIIVLTWLMDSQYST | inactive |
| REGLRYLMVRSIIFSHIFCN | inactive |
| REHLLDHTRLYC | inactive |
| RELNQFSPRAENWWYSSHSV | inactive |
| RENSKFFLIRC | inactive |
| RENTNSFGVNCGTQFGRISL | 1.56 ± 0.099 |
| REYRIFLVPCFSISDRGGSW | inactive |
| RFFNFPGNLKLSHVDLIAIW | 0.214 ± 0.64 |
| RFGFS | inactive |
| RFGGVLVVFGEWNDVVREAV | inactive |
| RFIISCQRYVETTT | inactive |
| RFIVHIYNMN | 2.59 ± 0.059 |
| RFKTF | inactive |
| RFLDRTLIGYVCGKRRSPSS | inactive |

| Substance | amyloid nucleation score |
| --- | --- |
| RFNCHRMCEHGDTLDMSYN | inactive |
| RFNMSFYQSYITSHCLVR | inactive |
| RFQFEGREFCLGMLDFNSWI | inactive |
| RFRKG | inactive |
| RFRVLTYIISYSFSFCHHVW | 0.356 ± 0.27 |
| RFSRTDGRLWSCKTCQ | inactive |
| RFVGVATTSFLTVTFGLVCE | inactive |
| RFYLDLEQQHLEIVGESR | inactive |
| RFYLIKPAI | inactive |
| RGAVCVNFTSRWSWGIGEHH | 1.33 ± 0.11 |
| RGCCKRPDGSKLVFIQMLIS | inactive |
| RGDSRFP | 0.08 ± 0.88 |
| RGDVLRFTWCSEPGCQRRTT | inactive |
| RGFICIGTLYLLAPVFCARS | 2.85 ± 0.062 |
| RGILFLV | inactive |
| RGKSLFLINTDM | -0.148 ± 0.7 |
| RGLLEANMLGSSGDPSVNSG | inactive |
| RGPSAPNFWE | inactive |
| RGRRSCRARRYTTGAFHELL | inactive |
| RGSDEDGYLG | 0.003 ± 0.7 |
| RHDVSSGSYGGRSGAGSPAQ | inactive |
| RHGKIAAS | inactive |
| RHISRRRLREVGVCRLKVML | inactive |

| Substance | amyloid nucleation score |
| --- | --- |
| RHKWLFMWGCFHFNKCASH | inactive |
| RHLIAFVVNNSFLVDYDSIS | inactive |
| RHRASGLFP | inactive |
| RHWIWLMQWKD | 1.11 ± 0.14 |
| RICMRLVNMTLMCQISGVLG | inactive |
| RICRYGAIDLMGVP | inactive |
| RIDIGY | 0.612 ± 0.17 |
| RIETYCVRGILAIE | inactive |
| RIFFGISVIQFLIRSYSVHR | inactive |
| RIHSYAYPCQFFRLDYGGGQ | 0.703 ± 0.13 |
| RILVGLNCS | inactive |
| RISRNGCGCGILYVIIRN | inactive |
| RIVGEYSLKGCEVNVSWVKS | inactive |
| RIVMPLSVSFMPQVKHPMYR | inactive |
| RIYSDGRSSFSRQLVWVCSR | inactive |
| RKDVSCSPLLNCETVSVQ | inactive |
| RKIETLWVYIYRLFRLGEQV | inactive |
| RKKRY | inactive |
| RKLFKKTFYLAPRL | inactive |
| RKQRNWCTTPVVRFRVYGYA | inactive |
| RKRAGVMGTLSN | inactive |
| RKVIPCH | inactive |
| RLATHCKHNASCQQSFYRE | inactive |

| Substance | amyloid nucleation score |
| --- | --- |
| RLDPLVDFANDLMTSYSR | inactive |
| RLEFKESRMGLLVLGDN | inactive |
| RLFKSGEFDFCYIRGHCCSV | inactive |
| RLFSWNIYLWLL | 1.48 ± 0.081 |
| RLFYTRIDSTCIWLVLYAEK | inactive |
| RLGNTGMCV | inactive |
| RLGTM | inactive |
| RLGVVASPLHSTCIGNLLHG | inactive |
| RLIYLWVPYCNMCRCGLLCK | inactive |
| RLLFFLDRKDLDAGGVFSKG | inactive |
| RLLFSATFSRNFISCTKSSS | inactive |
| RLNCNYTFLLNTIHSPWCCC | inactive |
| RLNIYLWGVGLTRDVIYPPS | 1.66 ± 0.1 |
| RLNWASVRRFTLIGRSVRRS | inactive |
| RLPCPCNSVACVRTWISRCS | inactive |
| RLPSREIVHCVQNSGRNPVG | 0.079 ± 0.35 |
| RLQNPTCAAPWCCIGKGVIR | 0.538 ± 0.39 |
| RLQVRLSLLRWFRNYGLTIA | inactive |
| RLRRLCYSSGELDALGLCVW | 0.261 ± 0.42 |
| RLRVFVIGLPGALQIVGSLG | 0.005 ± 0.98 |
| RLSMPPRIFMPNHNCIDHAS | inactive |
| RLWLVYAKPGTRRCSRRMGC | inactive |
| RLYILAGGDFCNSCVVAYCR | 0.147 ± 0.36 |

| Substance | amyloid nucleation score |
| --- | --- |
| RLYSLSSRCNLNRATPPTKS | -0.041 ± 0.75 |
| RLYVLAGITLTMTSTTKRSL | inactive |
| RMFFYWDEFYSLIVGVMSGL | inactive |
| RMFGNIDCFCIIIMKVSWSG | inactive |
| RMFICSQYWFVWVKLPPCGL | inactive |
| RMFWRYWYSQEMGYDRAIKG | inactive |
| RMIRNDFMITLEWGDSGGYH | 1.28 ± 0.097 |
| RMLLICNFGIVCQPMTSLQR | 2.24 ± 0.063 |
| RMMNKAADNVMNYNCVCCKS | inactive |
| RMTKTKI | inactive |
| RMYLAHFCVIN | 2.9 ± 0.062 |
| RNLRVIGVTRDHGNF | inactive |
| RNNMKTCNVMCIFSNECHCR | 2.85 ± 0.055 |
| RNTVSSTQEIWRLPISLEKT | inactive |
| RNWERIASGHVFCFLLCIID | inactive |
| RNYRGTSEIRCVPWLSSVSW | inactive |
| RPAHVIICYNLSYCNKWLHS | 2.04 ± 0.071 |
| RPNVDWKMPRFCFPSQSKTG | inactive |
| RPRALRQTLFDRYL | 0.872 ± 0.13 |
| RPRHDHWNDVNDATSYRYVM | inactive |
| RPRQSTIMKNDTSSVAVSGL | -0.582 ± 1.1 |
